From article PMC8131325 (The Journal of Biological Chemistry, 2021) come the findings set out here.

In general, Kd refers to the constant that tells how readily two partners part at equilibrium. Broadly, the koff is a measure of how fast the partners let go of each other. What is called kon is the rate constant with which the complex forms. One may read the stoichiometry N as the number of molecules, sites or subunits per partner or assembly.

For test [1], the target named is T1, FABP3 with N-terminal His6 tag (UniProt P05413 1-133).
T1 construct: synthetic gene (Invitrogen GeneArt) in pET28a between NdeI and XhoI; Apo (delipidized) form; held on the Ni-NTA quartz sensor by the His6 tag; also called His6-FABP3; not shown: His6, N-terminal, kept
The test can be described thus: quartz crystal microbalance (QCM); His6-FABP3 (or FABP3 F16S) immobilised on the gold-plated quartz sensor through Ni-NTA groups; αSyn, its variants or peptides added at varying concentrations; room temperature; 50 mM Tris-HCl pH 7.4; kobs = koff + kon[αSyn], Kd from kon and koff (AQUA 2.0). As to conditions: both partners purified.

For test [2], the target named is T2, fatty acid binding protein 3 (UniProt P05413 1-133).
T2 construct: synthetic gene (Invitrogen GeneArt) in pET28a between NcoI and XhoI; Untagged FABP3; also called FABP3; H-FABP; source: E. coli BLR(DE3), purified (Resource-Q anion exchange column), delipidized, lyophilized
The test is described as follows: other fluorescence titration; ANS fluorescence (5 μM ANS, emission at 460 nm) of 2 μM FABP3 with increasing concentrations of αSyn or αSynP130-140; 50 mM Tris-HCl pH 7.4. To be noted: both partners purified.

T1 sequence (P05413 whole entry): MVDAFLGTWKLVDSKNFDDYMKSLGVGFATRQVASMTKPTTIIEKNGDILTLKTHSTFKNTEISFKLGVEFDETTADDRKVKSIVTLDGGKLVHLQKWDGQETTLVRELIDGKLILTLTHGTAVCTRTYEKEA
T2 sequence (P05413 whole entry): as above

B1: αSynP130-140 (peptide)
peptide: EEGYQDYEPEA
notes: also called α-synuclein decoy peptide; C-terminal peptide of αSyn; source: synthetic peptide (SCRUM Inc or BEX Co Ltd)
As to B1, in test [1], the Kd came out at 6.1 nM, the koff is 0.0012 s⁻¹ and the kon came to 200000 M⁻¹ s⁻¹. The “stoichiometry N” value in test [2] was approximately 1.

B2: αSynP130-140 Y133F/Y136W (peptide)
peptide: EEGFQDWEPEA
notes: source: synthetic peptide (SCRUM Inc or BEX Co Ltd)
Turning to B2, in test [1], the Kd came to 6.1 nM, the dissociation rate constant (koff) is 0.0019 s⁻¹ and the kon stood at 320000 M⁻¹ s⁻¹.

B3: αSynP130-140 Y136F (peptide)
peptide: EEGYQDFEPEA
notes: as for B2
On to B3, for which, in test [1], the Kd was 7.7 nM, the koff is 0.0037 s⁻¹ and the kon amounted to 480000 M⁻¹ s⁻¹.

B4: αSynP130-140 Y133F (peptide)
peptide: EEGFQDYEPEA
notes: as for B2
As for B4, in test [1], the Kd came to 2 nM, the koff was 0.0015 s⁻¹ and the kon worked out at 750000 M⁻¹ s⁻¹.

B5: αSynP130-140 Y136W (peptide)
peptide: EEGYQDWEPEA
notes: as for B2
Consider B5, for which, in test [1], the dissociation constant Kd was 6.3 nM, the koff is 0.0024 s⁻¹ and the kon amounted to 380000 M⁻¹ s⁻¹.

B6: αSynP130-140 Y133W/Y136W (peptide)
peptide: EEGWQDWEPEA
notes: as for B2
On to B6, for which, in test [1], the Kd worked out at 6.2 nM, the koff turned out to be 0.0015 s⁻¹ and the kon was determined as 240000 M⁻¹ s⁻¹.

B7: αSynP130-140 Y133F/Y136F (peptide)
peptide: EEGFQDFEPEA
notes: as for B2
As for B7, in test [1], the Kd worked out at 2.1 nM, the koff came out at 0.0011 s⁻¹ and the kon is 540000 M⁻¹ s⁻¹.
